# In the supplement of paper PMC10567573:
# B1: ZNF232 (parent)
# chain: FPKSEQVYLHFLSVVTEDGPEPKD
# B2: SPRY1 (parent)
# chain: WIHRPGCRCKNSNTVYCKLESCPS
# Variants of: B1
# Experiment: protein stability index of a GFP-peptide fusion (GPS, HEK-293T) (PSI 1-6); higher = more stable
# Conditions: c terminus: a fixed tail appended
# 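Further: lentivirally expressed fusions sorted by FACS into six bins by GFP to DsRed ratio, PSI derived from sequencing read proportions per bin multiplied by bin number.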
row,Variant,protein stability index
1,FPKSEQVYLHFLSVVTEDGPEPKI [D24I],2.14
2,FPKSEQVYLHFLSVVTEDGPEPKF [D24F],1.99
3,FPKSEQVYLHFLSVVTEDGPEPKS [D24S],1.71
4,FPKSEQVYLHFLSVVTEDGPEPKW [D24W],1.35
5,FPKSEQVYLHFLSVVTEDGPEPKL [D24L],2.94
6,FPKSEQVYLHFLSVVTEDGPEPKH [D24H],1.35
7,FPKSEQVYLHFLSVVTEDGPEPKQ [D24Q],2.95
8,FPKSEQVYLHFLSVVTEDGPEPKM [D24M],1.56
9,FPKSEQVYLHFLSVVTEDGPEPKA [D24A],1.8
10,FPKSEQVYLHFLSVVTEDGPEPKV [D24V],2.37
11,FPKSEQVYLHFLSVVTEDGPEPKR [D24R],1.83
12,FPKSEQVYLHFLSVVTEDGPEPKY [D24Y],2.58
13,FPKSEQVYLHFLSVVTEDGPEPKT [D24T],1.75
14,FPKSEQVYLHFLSVVTEDGPEPKP [D24P],2.16
15,FPKSEQVYLHFLSVVTEDGPEPKE [D24E],2.12
16,FPKSEQVYLHFLSVVTEDGPEPKC [D24C],1.36

row,Variant,protein stability index
1,FPKSEQVYLHFLSVVTEDGPEPKN [D24N],1.82
2,FPKSEQVYLHFLSVVTEDGPEPKG [D24G],3.76
3,FPKSEQVYLHFLSVVTEDGPEPTD [K23T],1.69
4,FPKSEQVYLHFLSVVTEDGPEPHD [K23H],1.84
5,FPKSEQVYLHFLSVVTEDGPEPGD [K23G],1.83
6,FPKSEQVYLHFLSVVTEDGPEPDD [K23D],1.82
7,FPKSEQVYLHFLSVVTEDGPEPND [K23N],1.69
8,FPKSEQVYLHFLSVVTEDGPEPFD [K23F],1.63
9,FPKSEQVYLHFLSVVTEDGPEPED [K23E],2.13
10,FPKSEQVYLHFLSVVTEDGPEPVD [K23V],2.14
11,FPKSEQVYLHFLSVVTEDGPEPYD [K23Y],1.39
12,FPKSEQVYLHFLSVVTEDGPEPWD [K23W],1.7
13,FPKSEQVYLHFLSVVTEDGPEPSD [K23S],1.91
14,FPKSEQVYLHFLSVVTEDGPEPMD [K23M],2.22
15,FPKSEQVYLHFLSVVTEDGPEPID [K23I],2.06

# Variants of: B2
# Experiment: as above
# Conditions: c terminus: a fixed tail appended
row,Variant,protein stability index
1,WIHRMGCRCKNSNTVYCKLESCPS [P5M],2.15
2,WIHRGGCRCKNSNTVYCKLESCPS [P5G],1.85
3,WIHRRGCRCKNSNTVYCKLESCPS [P5R],3.01
4,WIHRDGCRCKNSNTVYCKLESCPS [P5D],3.42
5,WIHRVGCRCKNSNTVYCKLESCPS [P5V],2.65
6,WIHRKGCRCKNSNTVYCKLESCPS [P5K],2.21
7,WIHRHGCRCKNSNTVYCKLESCPS [P5H],1.91
8,WIHREGCRCKNSNTVYCKLESCPS [P5E],3.08
9,WIHRAGCRCKNSNTVYCKLESCPS [P5A],2.02
10,WIHRYGCRCKNSNTVYCKLESCPS [P5Y],3.19
11,WIHRWGCRCKNSNTVYCKLESCPS [P5W],1.82
12,WIHRSGCRCKNSNTVYCKLESCPS [P5S],2.27
13,WIHRFGCRCKNSNTVYCKLESCPS [P5F],1.79
14,WIHRLGCRCKNSNTVYCKLESCPS [P5L],2.77
15,WIHRQGCRCKNSNTVYCKLESCPS [P5Q],2.38
16,WIHRNGCRCKNSNTVYCKLESCPS [P5N],2.39
17,WIHRCGCRCKNSNTVYCKLESCPS [P5C],2.02
18,WIHRIGCRCKNSNTVYCKLESCPS [P5I],2.11
19,WIHRTGCRCKNSNTVYCKLESCPS [P5T],2.37
20,WIHRPGWRCKNSNTVYCKLESCPS [C7W],3
21,WIHRPGVRCKNSNTVYCKLESCPS [C7V],1.15

row,Variant,protein stability index
1,WIHRPGPRCKNSNTVYCKLESCPS [C7P],1.4
2,WIHRPGTRCKNSNTVYCKLESCPS [C7T],1.82
3,WIHRPGKRCKNSNTVYCKLESCPS [C7K],1.49
4,WIHRPGERCKNSNTVYCKLESCPS [C7E],1.85
5,WIHRPGMRCKNSNTVYCKLESCPS [C7M],2.14
6,WIHRPGNRCKNSNTVYCKLESCPS [C7N],2.37
7,WIHRPGRRCKNSNTVYCKLESCPS [C7R],3.4
8,WIHRPGYRCKNSNTVYCKLESCPS [C7Y],1.45
9,WIHRPGGRCKNSNTVYCKLESCPS [C7G],1.25
10,WIHRPGHRCKNSNTVYCKLESCPS [C7H],2.55
11,WIHRPGIRCKNSNTVYCKLESCPS [C7I],1.52
12,WIHRPGQRCKNSNTVYCKLESCPS [C7Q],1.94
13,WIHRPGFRCKNSNTVYCKLESCPS [C7F],2.89
14,WIHRPGARCKNSNTVYCKLESCPS [C7A],2.35
15,WIHRPGSRCKNSNTVYCKLESCPS [C7S],1.77
16,WIHRPGLRCKNSNTVYCKLESCPS [C7L],1.72
17,WIHRPGDRCKNSNTVYCKLESCPS [C7D],2.28
18,WSHRPGCRCKNSNTVYCKLESCPS [I2S],3.27
19,WGHRPGCRCKNSNTVYCKLESCPS [I2G],2.73
20,WVHRPGCRCKNSNTVYCKLESCPS [I2V],2.76
21,WPHRPGCRCKNSNTVYCKLESCPS [I2P],3.62

row,Variant,protein stability index
1,WFHRPGCRCKNSNTVYCKLESCPS [I2F],1.61
2,WLHRPGCRCKNSNTVYCKLESCPS [I2L],2.34
3,WRHRPGCRCKNSNTVYCKLESCPS [I2R],2.46
4,WWHRPGCRCKNSNTVYCKLESCPS [I2W],2.12
5,WAHRPGCRCKNSNTVYCKLESCPS [I2A],2.68
6,WTHRPGCRCKNSNTVYCKLESCPS [I2T],3.13
7,WQHRPGCRCKNSNTVYCKLESCPS [I2Q],2.82
8,WCHRPGCRCKNSNTVYCKLESCPS [I2C],3.23
9,WKHRPGCRCKNSNTVYCKLESCPS [I2K],3.39
10,WHHRPGCRCKNSNTVYCKLESCPS [I2H],2.77
11,WNHRPGCRCKNSNTVYCKLESCPS [I2N],3.22
12,WYHRPGCRCKNSNTVYCKLESCPS [I2Y],2.23
13,WMHRPGCRCKNSNTVYCKLESCPS [I2M],2.4
14,WEHRPGCRCKNSNTVYCKLESCPS [I2E],3.89
15,WDHRPGCRCKNSNTVYCKLESCPS [I2D],3.9
16,WIHRPGCSCKNSNTVYCKLESCPS [R8S],2.24
17,WIHRPGCGCKNSNTVYCKLESCPS [R8G],2.81
18,WIHRPGCTCKNSNTVYCKLESCPS [R8T],2.26
19,WIHRPGCICKNSNTVYCKLESCPS [R8I],2.38
20,WIHRPGCQCKNSNTVYCKLESCPS [R8Q],3.29
21,WIHRPGCFCKNSNTVYCKLESCPS [R8F],2.08
